Key:
[1] = target: polyclonal human IgG (Gammanorm, Octapharma) (human); experiment: breakthrough on ligand-coupled agarose column; 1 mg/ml IgG in 20 mM PBS + 0.15 M NaCl pH 7.4; residence time 6 min; ligand density 6.7 mg/ml
[2] = target: polyclonal human IgG (Gammanorm, Octapharma) (human); experiment: gradient elution pH 6 to pH 3, 0.1 M citrate, from ligand-coupled agarose column
[3] = target: polyclonal human IgG (Gammanorm, Octapharma) (human); experiment: breakthrough on ligand-coupled agarose column; 1 mg/ml IgG in 20 mM PBS + 0.15 M NaCl pH 7.4; residence time 2.4 min; ligand density 6.7 mg/ml
[4] = target: polyclonal human IgG (Gammanorm, Octapharma) (human); experiment: breakthrough on ligand-coupled agarose column; 1 mg/ml IgG in 20 mM PBS + 0.15 M NaCl pH 7.4; residence time 2.4 min; ligand density 6.9 mg/ml
[5] = target: mAb (Table 2, column 'pH mAb'); experiment: gradient elution pH 6 to pH 3, 0.1 M citrate, from ligand-coupled agarose column; about 10 mg cell culture supernatant loaded
[6] = target: polyclonal human IgG (Gammanorm, Octapharma) (human); experiment: breakthrough on ligand-coupled agarose column; 1 mg/ml IgG in 20 mM PBS + 0.15 M NaCl pH 7.4; residence time 6 min; ligand density 6.9 mg/ml
[7] = target: polyclonal human IgG (Gammanorm, Octapharma) (human); experiment: breakthrough on ligand-coupled agarose column; 1 mg/ml IgG in 20 mM PBS + 0.15 M NaCl pH 7.4; residence time 6 min; ligand density 5.3 mg/ml
[8] = target: polyclonal human IgG (Gammanorm, Octapharma) (human); experiment: breakthrough on ligand-coupled agarose column; 1 mg/ml IgG in 20 mM PBS + 0.15 M NaCl pH 7.4; residence time 2.4 min; ligand density 5.3 mg/ml

Row | Substance | Qb10% (dynamic binding capacity at 10% breakthrough) [1] [mg/ml resin] | Qb80% (dynamic binding capacity at 80% breakthrough) [1] [mg/ml resin] | elution pH at peak apex, pH hIgG (first peak) [2] [pH] | elution pH at peak apex, pH hIgG (second peak) [2] [pH] | Qb10% (dynamic binding capacity at 10% breakthrough) [3] [mg/ml resin] | Qb80% (dynamic binding capacity at 80% breakthrough) [3] [mg/ml resin] | Qb10% (dynamic binding capacity at 10% breakthrough) [4] [mg/ml resin] | Qb80% (dynamic binding capacity at 80% breakthrough) [4] [mg/ml resin] | elution pH at peak apex, pH mAb [5] [pH] | Qb10% (dynamic binding capacity at 10% breakthrough) [6] [mg/ml resin] | Qb80% (dynamic binding capacity at 80% breakthrough) [6] [mg/ml resin] | Qb10% (dynamic binding capacity at 10% breakthrough) [7] [mg/ml resin] | Qb80% (dynamic binding capacity at 80% breakthrough) [7] [mg/ml resin] | Qb10% (dynamic binding capacity at 10% breakthrough) [8] [mg/ml resin] | Qb80% (dynamic binding capacity at 80% breakthrough) [8] [mg/ml resin]
1 | Comparative prototype Z(H18S)4 (designed binder) | 55 | 67.5 | 5.1 | 4.61 | 37 | 62.2 |  |  |  |  |  |  |  |  | 
2 | Mutant Z(H18S,N28A)4 (designed binder) |  |  | 5.68 | 5.15 |  |  | 35.2 | 56 | 5.05 | 45.9 | 59.1 |  |  |  | 
3 | Mutant Z(H18S,P57I)4 (designed binder) |  |  | 5.44 | 4.91 |  |  |  |  | 4.71 |  |  | 47 | 58 | 35.6 | 56
